# Test results as given in patent US20210063414A1, “METHODS FOR PREVENTING AND/OR TREATING BONE LOSS CONDITIONS BY MODULATING IRISIN” (Dana-Farber Cancer Institute, Inc., priority 2018, published 2021).
# T1: MLO-Y4 cell surface proteins (Mus musculus, UniProt B1AVY7)
# T1 construct: endogenous in cells; host or cells: MLO-Y4
# T1 sequence (B1AVY7 1-1312): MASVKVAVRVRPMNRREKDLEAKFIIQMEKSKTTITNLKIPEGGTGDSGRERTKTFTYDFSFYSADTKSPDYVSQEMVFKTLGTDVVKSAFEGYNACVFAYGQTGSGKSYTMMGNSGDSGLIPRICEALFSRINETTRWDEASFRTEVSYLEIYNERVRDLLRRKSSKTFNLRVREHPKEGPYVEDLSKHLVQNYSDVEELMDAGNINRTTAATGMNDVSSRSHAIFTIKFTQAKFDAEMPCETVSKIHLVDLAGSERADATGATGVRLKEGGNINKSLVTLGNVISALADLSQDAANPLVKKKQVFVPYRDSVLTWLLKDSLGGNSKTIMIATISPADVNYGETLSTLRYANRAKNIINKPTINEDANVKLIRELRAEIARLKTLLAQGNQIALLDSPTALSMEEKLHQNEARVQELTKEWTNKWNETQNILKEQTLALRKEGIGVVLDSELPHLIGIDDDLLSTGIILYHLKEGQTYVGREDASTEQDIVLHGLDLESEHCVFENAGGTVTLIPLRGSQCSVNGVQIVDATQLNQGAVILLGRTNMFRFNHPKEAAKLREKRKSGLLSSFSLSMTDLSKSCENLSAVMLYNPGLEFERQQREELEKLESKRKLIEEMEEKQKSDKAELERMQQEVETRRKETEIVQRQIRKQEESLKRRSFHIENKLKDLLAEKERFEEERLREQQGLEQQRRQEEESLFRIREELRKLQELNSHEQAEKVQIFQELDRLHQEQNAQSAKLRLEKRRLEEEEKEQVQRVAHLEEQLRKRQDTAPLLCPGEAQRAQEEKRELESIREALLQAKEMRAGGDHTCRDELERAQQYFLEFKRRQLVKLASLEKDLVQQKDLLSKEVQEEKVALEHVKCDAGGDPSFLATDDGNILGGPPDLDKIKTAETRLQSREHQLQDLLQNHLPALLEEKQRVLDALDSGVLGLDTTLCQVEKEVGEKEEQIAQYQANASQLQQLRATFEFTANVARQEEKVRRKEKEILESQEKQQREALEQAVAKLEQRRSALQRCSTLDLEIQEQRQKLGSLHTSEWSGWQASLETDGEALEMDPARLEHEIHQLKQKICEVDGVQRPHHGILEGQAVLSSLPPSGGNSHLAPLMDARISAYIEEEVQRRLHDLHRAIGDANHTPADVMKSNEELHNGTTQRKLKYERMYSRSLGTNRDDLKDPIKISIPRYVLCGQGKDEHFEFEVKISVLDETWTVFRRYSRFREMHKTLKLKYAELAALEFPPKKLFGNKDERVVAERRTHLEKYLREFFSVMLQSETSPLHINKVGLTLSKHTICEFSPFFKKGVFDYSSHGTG
# Biological target: T1, MLO-Y4 cell surface proteins
# Assay: Crosslinking/co-immunoprecipitation/mass spectrometry (TMT quantitative proteomics) to identify irisin receptors
# Assay type: binding
# Conditions: co-precipitated protein Kif16b (KI16B_MOUSE)
# How it was run: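 Relative protein abundance came from 6-plex TMT MS3 quantitation on an Orbitrap Fusion Lumos, after in-gel trypsin digestion of Coomassie-stained SDS-PAGE lanes. Input was a Ni-NTA pulldown (250 mM imidazole elution) of lysates from murine MLO-Y4 cells. These cells were treated on ice with His-tagged irisin or adipsin (10 nM, 20 min) in serum-free medium, then crosslinked with 1.5 mM DTSSP for 30 min.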
molecule,measurement,value
"irisin: secreted cleaved form of FNDC5; recombinant human/mouse irisin with C-terminal his tag produced in HEK293 cells (protein, left off: small tags and cut ends, secreted cleaved form of FNDC5; recombinant human/mouse irisin with C-terminal his tag produced in HEK293 cells) DSPSAPVNVTVRHLKANSAVVSWDVLEDEVVIGFAISQQKKDVRMLRFIQEVNTTTRSCALWDLEEDTEYIVHVQAISIQGQSPASEPVLFKTPREAEKMASKNKDEVTMKE",TMT signal-to-noise ratio,528.649
same,irisin/adipsin TMT signal-to-noise ratio,0.473
